Test results: article PMC11611905, “Recruitment of autophagy initiator TAX1BP1 advances aggrephagy from cargo collection to sequestration” (The EMBO Journal, 2024)

Assays:
Conditions in all cases: both partners purified
10x-His-mCherry-TAX1BP1 = biological target: T1, 10x-His-mCherry-TAX1BP1 (UniProt Q86VP1 1-789); test: microscopy-based protein interaction assay; mCherry-TAX1BP1 on RFP-trap beads, GFP-tagged NBR1 fragment CC2-LIR1 as prey
T1 construct: TAX1BP1, full-length (FL); also called mCh-TAX1BP1; mCherry-TAX1BP1 FL; source: Sf9 insect cells (pLIB vector, baculovirus), purified; not shown: mCherry, N-terminal, kept

GFP-NBR1 (purified) = biological target: T2, GFP-NBR1 (purified) (UniProt Q14596 1-966); test: microscopy-based protein interaction assay; GST-TAX1BP1 (FL, N-domain, point mutants; 2.5 µM) as bait on GSH beads, 1 µM GFP-NBR1 as prey; SEC buffer (25 mM HEPES pH 7.5, 150 mM NaCl, 1 mM DTT); 15-30 min at RT; confocal imaging of the beads
T2 construct: NBR1; source: HEK293 (pCAGGSsH-C vector, VBCF ProTech facility), purified; not shown: GFP, N-terminal, kept
T2 sequence (looked up): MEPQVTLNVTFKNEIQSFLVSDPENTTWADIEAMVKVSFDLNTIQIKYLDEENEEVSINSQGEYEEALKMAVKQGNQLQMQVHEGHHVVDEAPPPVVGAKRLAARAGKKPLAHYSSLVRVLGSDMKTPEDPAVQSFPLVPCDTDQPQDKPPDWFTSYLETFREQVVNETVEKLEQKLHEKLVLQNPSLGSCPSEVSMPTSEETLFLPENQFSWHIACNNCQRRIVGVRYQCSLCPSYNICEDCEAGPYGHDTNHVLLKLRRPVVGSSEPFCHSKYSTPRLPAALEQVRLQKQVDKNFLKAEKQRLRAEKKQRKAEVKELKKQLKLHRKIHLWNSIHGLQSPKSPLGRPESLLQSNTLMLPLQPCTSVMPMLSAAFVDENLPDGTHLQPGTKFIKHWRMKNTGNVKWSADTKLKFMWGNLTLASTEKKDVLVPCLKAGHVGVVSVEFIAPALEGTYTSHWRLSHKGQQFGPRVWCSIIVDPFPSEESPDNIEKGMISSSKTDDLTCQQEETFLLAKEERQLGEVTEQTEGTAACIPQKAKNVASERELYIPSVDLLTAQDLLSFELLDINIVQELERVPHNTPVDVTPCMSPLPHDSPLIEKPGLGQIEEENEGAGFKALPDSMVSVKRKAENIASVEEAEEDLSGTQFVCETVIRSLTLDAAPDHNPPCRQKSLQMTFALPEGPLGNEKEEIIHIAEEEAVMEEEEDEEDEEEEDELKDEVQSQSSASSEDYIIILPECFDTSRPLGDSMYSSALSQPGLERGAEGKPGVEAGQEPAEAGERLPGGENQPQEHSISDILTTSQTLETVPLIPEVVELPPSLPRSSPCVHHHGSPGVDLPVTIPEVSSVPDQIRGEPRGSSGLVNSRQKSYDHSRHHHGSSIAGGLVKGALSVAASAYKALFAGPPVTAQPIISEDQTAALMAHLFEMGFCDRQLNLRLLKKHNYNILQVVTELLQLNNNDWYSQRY

10x-His-GFP-TAX1BP1 = biological target: T3, 10x-His-GFP-TAX1BP1 (UniProt Q86VP1 1-789); test: peptide or protein array; entire NBR1 sequence spotted as 12 aa peptides on a membrane; GFP-TAX1BP1 at 50 µg/ml in SEC buffer, 2 h at RT; detection by western blot
T3 construct: TAX1BP1, full-length (FL); also called GFP-TAX1BP1 FL; recombinant TAX1BP1; source: Sf9 insect cells (pLIB vector, baculovirus), purified; not shown: GFP, N-terminal, kept
T3 sequence (Q86VP1 whole entry): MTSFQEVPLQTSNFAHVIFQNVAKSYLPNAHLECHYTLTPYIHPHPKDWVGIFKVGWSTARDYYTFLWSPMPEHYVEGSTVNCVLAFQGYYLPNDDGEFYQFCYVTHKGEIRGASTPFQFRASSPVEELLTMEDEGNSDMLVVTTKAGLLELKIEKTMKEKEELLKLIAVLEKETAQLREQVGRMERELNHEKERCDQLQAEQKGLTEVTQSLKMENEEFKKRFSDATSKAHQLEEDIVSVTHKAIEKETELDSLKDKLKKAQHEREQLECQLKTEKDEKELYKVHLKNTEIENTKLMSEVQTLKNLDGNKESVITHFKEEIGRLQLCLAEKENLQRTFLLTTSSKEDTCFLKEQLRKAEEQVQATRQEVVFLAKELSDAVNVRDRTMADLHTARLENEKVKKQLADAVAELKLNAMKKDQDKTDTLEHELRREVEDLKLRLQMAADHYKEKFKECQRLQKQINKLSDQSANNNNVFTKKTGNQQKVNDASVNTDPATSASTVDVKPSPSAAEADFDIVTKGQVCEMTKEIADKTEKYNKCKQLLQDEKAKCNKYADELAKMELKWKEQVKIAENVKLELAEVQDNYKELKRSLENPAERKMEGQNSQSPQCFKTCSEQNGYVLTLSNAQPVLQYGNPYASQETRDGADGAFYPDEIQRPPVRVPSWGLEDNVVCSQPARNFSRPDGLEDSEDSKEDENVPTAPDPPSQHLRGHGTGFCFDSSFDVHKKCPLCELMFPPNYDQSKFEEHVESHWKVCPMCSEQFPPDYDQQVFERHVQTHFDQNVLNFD

T1 sequence (Q86VP1 whole entry, the tested form may be a part): as the sequence (Q86VP1 whole entry) above

Row | Binder | binding result (10x-His-GFP-TAX1BP1) | also measured
1 | GFP-CC2-LIR1 (NBR1 aa685-aa757) (domain or fragment, UniProt Q14596 685-757, looked up, the methods name the purified protein GST-GFP-CC2-LIR1 and give two ways of elution (TEV cleavage or glutathione) without saying which was used; also called GST-GFP-CC2-LIR1; source: E. coli Rosetta pLysS, purified (GSH beads, SEC); not shown: GFP, N-terminal, kept) LGNEKEEIIHIAEEEAVMEEEEDEEDEEEEDELKDEVQSQSSASSEDYIIILPECFDTSRPLGDSMYSSALSQ | – | binding result (10x-His-mCherry-TAX1BP1): binds
2 | GST-N-domain (aa420-506 of TAX1BP1) (domain or fragment, UniProt Q86VP1 420-506, looked up) DQDKTDTLEHELRREVEDLKLRLQMAADHYKEKFKECQRLQKQINKLSDQSANNNNVFTKKTGNQQKVNDASVNTDPATSASTVDVK | – | binding result (GFP-NBR1 (purified)): binds
3 | DYIIILPECFDTSRPLGDS (peptide, UniProt Q14596 731-749, looked up, NBR1 aa731-749, covered by overlapping 12 aa spots of the peptide array; source: synthetic peptides spotted on a membrane (Peptide Synthesis facility of the IMP)) [NBR1 peptides of binding region 2 (aa731-aa749)] | binds | –
4 | RPESLLQSNTLMLPLQPCT (peptide, UniProt Q14596 347-365, looked up, NBR1 aa347-365, covered by overlapping 12 aa spots of the peptide array; also called parts of the FW domain; source: synthetic peptides spotted on a membrane (Peptide Synthesis facility of the IMP)) [NBR1 peptides of binding region 1 (aa347-aa365)] | binds | –
